The target in test [1] is T1, Raji cell surface human CD40 (Homo sapiens, UniProt P25942).
T1 construct: Raji cells highly express human CD40 on the cell surface; endogenous in cells; host or cells: Raji cells (Burkitt lymphoma line)
Kind of test: FACS binding of humanized anti-CD40 antibodies to Raji cells. The method, then: Raji cells highly express human CD40 on the cell surface and thus can be used to detect the binding of CD40 antagonistic antibodies to the cell surface human CD40.
Raji cells were plated at 1.5E5/well, and various concentrations of CD40 antagonistic antibodies were added. The plate was incubated at 4° C. for 1 h. After two washes with FACS buffer (PBS+2% FBS), a secondary antibody (Alexa Flour488 conjugated anti-human IgG (H+L) antibody) was added, and the plate was incubated at 4° C. for 0.5 h.
After two washes with FACS buffer, the fluorescence intensity on the cell surface was measured by flow cytometry (BD FACS Celesta).
For orientation: A flow cytometer gives signals particle by particle.

The target in test [2] is T2, CD40 (Homo sapiens, UniProt P25942). Kind of test: HEK-Blue CD40L reporter gene cell activity of human-rabbit chimeric anti-CD40 antibodies. The conditions noted are these: HEK-Blue CD40L cells, 25 ng/mL CD40L + anti-His antibody. Also on record: host or cells: HEK-Blue CD40L cells. It counts as cell-based. Here is the method: HEK-Blue CD40L cells were purchased from Invivogen (Cat. #hkb-cd40). The cells were stably transfected with the human CD40 gene and the NF-kB-mediated SEAP genome. The activation level of the CD40 signaling pathway can be characterized by detecting the secreted SEAP in the supernatant using QUANTI-Blue, the substrate of SEAP. In this experiment, the in vitro antagonist activity of anti-CD40 antibodies was assessed according to IC50 by detecting the activation of HEK-Blue CD40L cells by CD40L. HEK-Blue CD40L cells were cultured in a DMEM medium containing 10% FBS, 100 μg/mL Zeocin and 30 μg/mL Blasticidin and passaged 2-3 times in a week at a ratio of 1:5 or 1:10. During passaging, the medium was pipetted off, and the cell layer was rinsed with 5 mL of 0.25% pancreatin. Then the pancreatin was pipetted off, the cells were digested in an incubator for 3-5 min, and then a fresh medium was added to resuspend cells. 100 μL of cell suspension was added to a 96-well cell culture plate at a density of […]. The medium was DMEM containing 10% FBS, 100 μg/mL Zeocin and 30 μg/mL Blasticidin. Only 100 μL of sterile water was added to the periphery of the 96-well plate. […] The absorbance at 630 nm was measured with a microplate reader (Thermo MultiSkanFc), and IC50 values were calculated and used to assess the in vitro cell activity of the anti-CD40 antibodies.
Target sequence in this assay (P25942 21-277): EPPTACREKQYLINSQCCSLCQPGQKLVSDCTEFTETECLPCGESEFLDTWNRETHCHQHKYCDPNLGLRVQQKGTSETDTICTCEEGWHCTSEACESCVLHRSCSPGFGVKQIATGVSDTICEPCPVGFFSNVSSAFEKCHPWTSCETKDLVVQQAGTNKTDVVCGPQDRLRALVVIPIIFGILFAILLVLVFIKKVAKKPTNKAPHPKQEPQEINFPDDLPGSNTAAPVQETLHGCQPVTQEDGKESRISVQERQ

In test [3] the target is T2, CD40. Kind of test: FACS binding of human-rabbit chimeric anti-CD40 antibodies to Raji cells. Here is the method: Raji cells are of a tumor cell line that overexpresses human CD40. 2E5 Raji cells were inoculated onto a 96-well plate. 100 μL of a test antibody was added, with the highest final concentration of 100 nM. The antibody was 5-fold diluted to 8 concentrations. The plate was incubated at 4° C. for 1 h. The plate was washed once with wash buffer, and an AF647-conjugated anti-human IgG antibody (Jackson Immunoresearch Laborotories, Cat. #205-609-088) was added at a dilution ratio of 1:500. The plate was incubated at 4° C. for 30 min. The plate was washed once with wash buffer, and fluorescence intensity was measured using a flow cytometer. The binding EC50 values of the anti-CD40 antibodies for CD40 were calculated. The anti-CD40 antagonistic antibody CFZ533 (i.e., iscalimab, Nova) was used as a positive control, and the heavy and light chain variable region sequences were derived from sequence 5 and sequence 2 of U.S. Pat. No. 8,277,810B, respectively.
Target sequence in this assay (P25942 21-277): as above

The target in test [4] is T2, CD40. The test is described as follows: HEK-Blue CD40L reporter gene cell activity of humanized anti-CD40 antibodies. The note with it: read-out: IC50 inhibition of CD40 reporter gene cell activity. The class given is cell-based. Also on record: host or cells: HEK-Blue CD40L cells. Here is the method:
HEK-Blue CD40L cells were purchased from Invivogen (Cat. #hkb-cd40). The cells were stably transfected with the human CD40 gene and the NF-kB-mediated SEAP genome. The activation level of the CD40 signaling pathway can be characterized by measuring the amount of secreted SEAP in the supernatant using QUANTI-Blue, the substrate of SEAP. In the assays, the inhibitory effects of the CD40 antagonistic antibodies on the CD40L-induced HEK-Blue CD40L cell activation were measured, and the in vitro cell activity of the CD40 antagonistic antibodies was assessed based on IC50. HEK-Blue CD40L cells were cultured in a DMEM medium containing 10% FBS, 100 μg/mL Normocin, 100 μg/mL Zeocin and 30 μg/mL Blasticidin, with 2-3 passages a week. HEK-Blue CD40L cells were plated at 5E4/well into a 96-well cell culture plate (the medium was DMEM, 10% FBS, 100 μg/mL Normocin) and incubated overnight. […] CD40L-his (R&D, 2706-CL-025) and anti-His antibody (R&D, MAB050-500) were added, and the plate was incubated overnight. After cell centrifugation, 20 μL of the cell supernatant was transferred to a new 96-well white plate, and 180 μL of QUANTI-Blue substrate solution was added. The plate was incubated in the dark for 15 min. The absorbance at 620 nm was measured with an Envision microplate reader, and IC50 values were calculated and used to assess the in vitro cell activity of the CD40 antagonistic antibodies.
(In general: A reporter such as luciferase makes a cellular process visible.)
Target sequence in this assay (P25942 21-277): as above

Test [5] concerns the target T2, CD40. Kind of test: SPR (Biacore) affinity for human CD40. It counts as binding. Also on record: h-CD40-his; Glu21-Arg193; P25942-1; His; purchased Acrobiosystems Inc. CD0-H5228. The conditions noted are these: Human CD40 as mobile phase, antibody captured. The method, then: The test antibody was affinity-captured on an anti-human Fc chip, and a series of concentrations of His-tagged human or cynomolgus monkey CD40 antigen were allowed to flow over the chip surface. Reaction signals were detected in real time using a Biacore instrument, and thus binding and dissociation curves were obtained. The buffer used in the experiment was HBS-EP+10× buffer solution (Cat. #BR-1006-69, GE) diluted to 1× (pH 7.4) with D. I. Water. Fitting was performed on the data obtained from the experiment using a (1:1) Binding model to obtain affinity values. 9E6-L4H2 and 2F12-L4H2 have similar binding constants for human CD40 to CFZ533, 9E6-L4H2 has a stronger binding affinity for cynomolgus monkey CD40, and 2F12-L4H2 has a slightly weak binding affinity for cynomolgus monkey CD40.
Target sequence in this assay (P25942 21-193): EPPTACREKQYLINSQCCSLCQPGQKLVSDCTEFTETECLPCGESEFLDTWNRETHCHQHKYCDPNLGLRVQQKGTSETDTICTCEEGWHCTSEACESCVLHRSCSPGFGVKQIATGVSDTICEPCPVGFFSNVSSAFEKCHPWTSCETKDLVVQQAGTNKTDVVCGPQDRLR
In general terms: In SPR one partner is held on a chip, and binding of the other changes the refractive index at the surface.

pEC50, pIC50: −log10 of the molar value.

T1 sequence (P25942 21-277): as the sequence (P25942 21-277) above

The term pEC50 denotes the negative decadic logarithm of the EC50, by convention in mol/L. A higher pEC50 goes with a low EC50. Usually pIC50 stands for the negative decadic logarithm of the IC50, by convention in mol/L. “CFZ533: anti-CD40 antagonistic antibody (iscalimab), positive control; variable regions from U.S. Pat. No. 8,277,810B [reference compound]”: the pEC50 in test [1] is 9.00; in the test with CD40 [3], 8.62. The pIC50 with CD40 [2] was 9.57; with CD40 [4] (Assay 1), 9.44; with CD40 [4] (Assay 2), 9.46. In the test with CD40 [5], this substance yielded a Ka of 688000 M⁻¹ s⁻¹.

The values are drawn from patent US20250340661A1, “ANTI CD40 ANTIBODY, ANTIGEN BINDING FRAGMENT AND MEDICAL USE THEREOF” (Jiangsu Hengrui Pharmaceuticals Co., Ltd., priority 2021, published 2025).
